Laboratory results published in PMC10625565.

Biological target: GST-PpROP4CA (G15V)
Assay: pull-down (MBP pull-down, anti-GST western blot, band quantification)
Settings: three replicates; parent: est. 0.17; read off a plot

- other: Protein ratio: 0.17
Substance: MBP-PpREN (wild type) R204L
